Measurements: the supplement of paper PMC9732359
± gives the uncertainty stated by the source.

Assay: protein stability index of a GFP-peptide fusion (yeast GPS) (PSI 1-4); higher = more stable; sorted into four equal gates, so the index is relative within each strain
Outline: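 Sequencing reads from sorted gates were used to score each peptide. The library consisted of tiled 17-residue yeast protein peptides fused downstream of GFP on a Cherry-expressing plasmid, pooled and carried in yeast. Mid-log cultures in leucine-free medium were split into four equal gates by GFP/Cherry ratio, and each gate's plasmids were PCR-amplified and Illumina-sequenced. The protein stability index adds up, over all gates, the read frequency multiplied by the gate number.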

Sequence	protein stability index (doa10∆)	protein stability index (pdr5∆)	protein stability index (san1∆)	protein stability index (ubr1∆)
GNGEGLGGDSDEANIEI [BRN1]	3.11 ± 0.17	3.48 ± 0.27	2.95 ± 0.17	–
GNILDFNLNLPPSSFGR [REC8]	3.04 ± 0.075	3.24 ± 0.15	3.03 ± 0.055	2.94 ± 0.1
GNIVAELAQDPQTMEHY [YCS4]	2.9 ± 0.1	3.4 ± 0.17	3.44 ± 0.16	2.07 ± 0.11
GNLIGVDPFDSDEEESV [SNU114]	3.03 ± 0.075	3.14 ± 0.059	3 ± 0.057	3.2 ± 0.054
GNVVMDIGKGAETTFLQ [RPC53]	3.26 ± 0.2	–	3.02 ± 0.22	3.29 ± 0.083
GPAAAIEFEYDPWNKLK [RPB3]	3.04 ± 0.081	3.08 ± 0.078	3.05 ± 0.052	3.25 ± 0.065
GPSVESYELRNTTTYKS [SNF5]	2.75 ± 0.1	2.9 ± 0.099	2.41 ± 0.094	1.99 ± 0.082
GQCRPISKTVRFNVVKV [RPS11A]	3.31 ± 0.12	2.93 ± 0.22	2.76 ± 0.097	2.77 ± 0.1
GQGYRKVGIWPYFDYIF [YJL039C/NUP192]	3.37 ± 0.14	3.21 ± 0.12	3.03 ± 0.12	2.62 ± 0.17
GQPVNDFIDTATRHVLM [RPS3]	2.96 ± 0.081	3.02 ± 0.06	3.1 ± 0.051	2.96 ± 0.07
GQSAGKLAAIVEIIDQK [RPL14A]	3.28 ± 0.098	3.29 ± 0.11	2.82 ± 0.11	3.41 ± 0.066
GRDTTDYLKNIIVENSG [RPN2]	3.21 ± 0.13	2.83 ± 0.17	3.34 ± 0.12	3.4 ± 0.23
GRHHQEEELFQEMIEIS [SRP54]	3.21 ± 0.058	3.3 ± 0.047	3.41 ± 0.038	3.35 ± 0.058
GRILQNLLHSYMEKGTQ [YML103C/NUP188]	2.66 ± 0.14	2.51 ± 0.096	1.96 ± 0.086	2.51 ± 0.12
GRLDRKIEFPLPSEDSR [RPT5]	3.36 ± 0.15	2.91 ± 0.21	2.71 ± 0.24	3.56 ± 0.12
GRNGSNGNDESSEYETI [NUT1]	3.13 ± 0.13	3.34 ± 0.11	3.09 ± 0.086	3 ± 0.12
GRPQRKMMSFQANPTEE [RPB5]	–	3.2 ± 0.17	3.44 ± 0.094	3.53 ± 0.19
GRQFCNRLSRIHLYMLT [YLR018C/POM34]	1.68 ± 0.051	1.87 ± 0.05	1.69 ± 0.1	1.8 ± 0.04
GRRWNELRRFESSINTH [SKI6]	–	2.66 ± 0.12	2.01 ± 0.13	2.41 ± 0.13
GRSWDGKEHIVAALVSL [ECM29]	1.88 ± 0.052	2.1 ± 0.063	1.56 ± 0.082	1.65 ± 0.042
GRVTFIPLNRLSLDSDV [SMC3]	2.65 ± 0.09	2.9 ± 0.053	2.85 ± 0.063	3.09 ± 0.058
GRYMEALALYVDAYRRL [SRP68]	1.84 ± 0.074	1.91 ± 0.11	1.85 ± 0.15	1.79 ± 0.077
GSELVQKYVGEGARMVR [RPT1]	2.57 ± 0.22	2.84 ± 0.085	3 ± 0.085	2.81 ± 0.05
GSESDDSEGSIKQTSDE [ECM29]	3.32 ± 0.1	3.57 ± 0.083	3.32 ± 0.068	3.42 ± 0.062
GSGLLKLSEIILNINNS [SWI1]	2.69 ± 0.089	2.69 ± 0.081	2.4 ± 0.098	2.85 ± 0.081

Sequence	protein stability index (doa10∆)	protein stability index (pdr5∆)	protein stability index (san1∆)	protein stability index (ubr1∆)
GSIGSRKYSFNYSSLPS [YAR002W/NUP60]	1.95 ± 0.059	2.39 ± 0.062	2.12 ± 0.081	1.65 ± 0.039
GSLKLPNCPRPNMSICI [RPL1A]	2.62 ± 0.082	2.67 ± 0.05	2.95 ± 0.065	2.98 ± 0.05
GSMTKTWYVGNSRGKFD [SSN2]	3.74 ± 0.26	–	3.08 ± 0.24	–
GSNGELFGGRHYLFNTF [SWP82]	–	2.97 ± 0.29	–	–
GSRMVRELFVMAREHAP [RPT6]	1.82 ± 0.074	1.68 ± 0.073	1.09 ± 0.27	1.54 ± 0.079
GSRVLIFSQMSRLLDIL [ISW2]	3.27 ± 0.15	3.46 ± 0.11	3.18 ± 0.11	3.58 ± 0.08
GTISKLENKENGLLNEI [SMC2]	3.45 ± 0.29	3.28 ± 0.087	3.36 ± 0.1	3.35 ± 0.17
GTLEYGTCFGGSKLEDM [RET1]	3.17 ± 0.072	3.16 ± 0.072	3.36 ± 0.061	3.29 ± 0.065
GTNAMLPSPESLKTKLN [SNF5]	1.88 ± 0.037	1.97 ± 0.035	2.19 ± 0.046	2.12 ± 0.034
GTNNARLAQLLRQLASY [RPN1]	3.17 ± 0.092	3.09 ± 0.083	3.21 ± 0.097	3.14 ± 0.096
GTPEATKGMITNLQRNV [NUT2]	2.95 ± 0.15	2.85 ± 0.12	2.94 ± 0.15	3.09 ± 0.19
GTPLFTFGKKADVTSNI [YOR098C/NUP1]	1.82 ± 0.05	1.92 ± 0.046	1.51 ± 0.11	2.18 ± 0.036
GTPLLEVRGQVPVIESA [SNU114]	1.62 ± 0.046	1.88 ± 0.052	2.06 ± 0.093	1.95 ± 0.048
GTPLQNNLHELWALLNF [ISW2]	2.76 ± 0.045	2.55 ± 0.051	2.35 ± 0.05	2.76 ± 0.041
GVDNLRRMGILKKILDQ [RPO31]	2.48 ± 0.1	2.7 ± 0.11	2.4 ± 0.083	2.96 ± 0.04
GVEVRVTPTKTEVIIRA [RPS3]	1.75 ± 0.048	1.73 ± 0.047	2.55 ± 0.071	1.57 ± 0.036
GVIIKVEESGEHVILGN [SNU114]	2.65 ± 0.12	2.81 ± 0.086	3.2 ± 0.14	3 ± 0.073
GVKDCQEGLITTTMLQL [SSN2]	2.46 ± 0.083	2.5 ± 0.1	2.74 ± 0.079	2.6 ± 0.052
GVNGYIWLRKTSQMDLA [RRP4]	3.07 ± 0.077	2.74 ± 0.068	3.07 ± 0.097	2.9 ± 0.098
GVQSNGDQFLRYVNLLG [PRE4]	2.6 ± 0.073	2.51 ± 0.05	2.17 ± 0.063	2.31 ± 0.036
GVSLLALWKEKKEKPRS [RPS23A]	3.12 ± 0.089	2.29 ± 0.11	2.21 ± 0.1	2.94 ± 0.075
GVVVLRDREPKEPVALI [RPN2]	3.5 ± 0.1	3.21 ± 0.11	3.45 ± 0.076	3.41 ± 0.29
GVYSDDELLSQLDLCKL [SRP68]	3.09 ± 0.063	3.21 ± 0.053	3.23 ± 0.043	3.15 ± 0.068
GWKPLRYLDNLKQEIDR [SNU114]	–	–	–	3.15 ± 0.13
